Measured values: the supplement of paper PMC10567573

B1: MYOZ1 (parent)
chain: FSDSSMDHFQKFLPTVGGQLGTAG

Variants of: B1
Test: protein stability index of a GFP-peptide fusion (GPS, HEK-293T) (PSI 1-6); higher = more stable
Settings: c terminus: a fixed tail appended
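Further: lentivirally expressed fusions sorted by FACS into six bins by GFP to DsRed ratio, PSI derived from sequencing read proportions per bin multiplied by bin number.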

Variant	protein stability index
FSDSSMDHFQKFLPEVGGQLGTAG [T15E]	2.5
FSDSSMDHFQKFLPFVGGQLGTAG [T15F]	2.13
FSDSSMDHFQKFLPYVGGQLGTAG [T15Y]	1.93
FSDSSMDHFQKFLPGVGGQLGTAG [T15G]	2.46
FSDSSMDHFQKFLPPVGGQLGTAG [T15P]	2.51
FSDSSMDHFQKFLPHVGGQLGTAG [T15H]	2.69
FSDSSMDHFQKFLPRVGGQLGTAG [T15R]	2.08
FSDSSMDHFQKFLPKVGGQLGTAG [T15K]	2.64
FSDSSMDHFQKFLPSVGGQLGTAG [T15S]	2.93
FSDSSMDHFQKFLPWVGGQLGTAG [T15W]	1.33
FSDSSMDHFQKFLPVVGGQLGTAG [T15V]	2.66
FSDSSMDHFQKFLPMVGGQLGTAG [T15M]	1.85
FSDSSMDHFQKFLPTPGGQLGTAG [V16P]	2.56
FSDSSMDHFQKFLPTSGGQLGTAG [V16S]	2.94
FSDSSMDHFQKFLPTCGGQLGTAG [V16C]	2.38
FSDSSMDHFQKFLPTWGGQLGTAG [V16W]	2.44
FSDSSMDHFQKFLPTAGGQLGTAG [V16A]	3.19
FSDSSMDHFQKFLPTIGGQLGTAG [V16I]	2.13
FSDSSMDHFQKFLPTQGGQLGTAG [V16Q]	3.19
FSDSSMDHFQKFLPTRGGQLGTAG [V16R]	2.46
FSDSSMDHFQKFLPTDGGQLGTAG [V16D]	2.85
FSDSSMDHFQKFLPTFGGQLGTAG [V16F]	2.75
FSDSSMDHFQKFLPTLGGQLGTAG [V16L]	2.28
FSDSSMDHFQKFLPTMGGQLGTAG [V16M]	2.46

Variant	protein stability index
FSDSSMDHFQKFLPTTGGQLGTAG [V16T]	3.09
FSDSSMDHFQKFLPTEGGQLGTAG [V16E]	4.23
FSDSSMDHFQKFLPTGGGQLGTAG [V16G]	2.98
FSDSSMDHFQKFLPTYGGQLGTAG [V16Y]	1.92
FSDSSMDHFQKFLPTKGGQLGTAG [V16K]	2.64
FSDSSMDHFQKFLPTHGGQLGTAG [V16H]	2.75
FSDSSMDHFQKFLPTNGGQLGTAG [V16N]	2.26
FSDSSMDHFQKFLNTVGGQLGTAG [P14N]	1.47
FSDSSMDHFQKFLTTVGGQLGTAG [P14T]	2.25
FSDSSMDHFQKFLQTVGGQLGTAG [P14Q]	2.38
FSDSSMDHFQKFLMTVGGQLGTAG [P14M]	2.68
FSDSSMDHFQKFLLTVGGQLGTAG [P14L]	4.1
FSDSSMDHFQKFLVTVGGQLGTAG [P14V]	3.62
FSDSSMDHFQKFLRTVGGQLGTAG [P14R]	1.44
FSDSSMDHFQKFLPTVGGQLGTTG [A23T]	2.59
FSDSSMDHFQKFLPTVGGQLGTFG [A23F]	2.49
FSDSSMDHFQKFLPTVGGQLGTIG [A23I]	1.91
FSDSSMDHFQKFLPTVGGQLGTKG [A23K]	2.14
FSDSSMDHFQKFLPTVGGQLGTCG [A23C]	2.08
FSDSSMDHFQKFLPTVGGQLGTWG [A23W]	2.01
FSDSSMDHFQKFLPTVGGQLGTSG [A23S]	1.83
FSDSSMDHFQKFLPTVGGQLGTPG [A23P]	2.22
FSDSSMDHFQKFLPTVGGQLGTYG [A23Y]	2.19
FSDSSMDHFQKFLPTVGGQLGTEG [A23E]	2.92

Variant	protein stability index
FSDSSMDHFQKFLPTVGGQLGTLG [A23L]	2.01
FSDSSMDHFQKFLPTVGGQLGTDG [A23D]	2.68
FSDSSMDHFQKFLPTVGGQLGTMG [A23M]	1.63
FSDSSMDHFQKFLPTVGGQLGTRG [A23R]	2.95
FSDSSMDHFQKFLPTVGGQLGTGG [A23G]	2.77
FSDSSMDHFQKFLPTVGGQLGTQG [A23Q]	2.62
FSDSSMDHFQKFLPTVGGQLGTNG [A23N]	2.68
FSDSSMDHFQKFLPTVGGQLGTHG [A23H]	2.3
FSDSSMDHFQKFLPTVGGQNGTAG [L20N]	2.97
FSDSSMDHFQKFLPTVGGQDGTAG [L20D]	3.24
FSDSSMDHFQKFLPTVGGQSGTAG [L20S]	3.71
FSDSSMDHFQKFLPTVGGQHGTAG [L20H]	2.79
FSDSSMDHFQKFLPTVGGQWGTAG [L20W]	1.56
FSDSSMDHFQKFLPTVGGQEGTAG [L20E]	3.51
FSDSSMDHFQKFLPTVGGQCGTAG [L20C]	1.66
FSDSSMDHFQKFLPTVGGQAGTAG [L20A]	2.58
FSDSSMDHFQKFLPTVGGQMGTAG [L20M]	2.35
FSDSSMDHFQKFLPTVGGQTGTAG [L20T]	2.53
FSDSSMDHFQKFLPTVGGQPGTAG [L20P]	3.12
FSDSSMDHFQKFLPTVGGQVGTAG [L20V]	2.25
FSDSSMDHFQKFLPTVGGQQGTAG [L20Q]	2.66
FSDSSMDHFQKFLPTVGGQYGTAG [L20Y]	2.27
FSDSSMDHFQKFLPTVGGQRGTAG [L20R]	2.98
FSDSSMDHFQKFLPTVGGQIGTAG [L20I]	2.69

Variant	protein stability index
FSDSSMDHFQKFLPTVGGQFGTAG [L20F]	2.25
FSDSSMDHFQKFLPTVGGQKGTAG [L20K]	3.1
FSDSSMDHFQKFLPTVGGQGGTAG [L20G]	3.24
FSDSSMDHFQKFLPTVGGYLGTAG [Q19Y]	2.04
FSDSSMDHFQKFLPTVGGMLGTAG [Q19M]	2.03
FSDSSMDHFQKFLPTVGGTLGTAG [Q19T]	2.29
FSDSSMDHFQKFLPTVGGFLGTAG [Q19F]	1.42
FSDSSMDHFQKFLPTVGGNLGTAG [Q19N]	2.08
FSDSSMDHFQKFLPTVGGELGTAG [Q19E]	3.12
FSDSSMDHFQKFLPTVGGILGTAG [Q19I]	2.01
FSDSSMDHFQKFLPTVGGSLGTAG [Q19S]	2.2
FSDSSMDHFQKFLPTVGGKLGTAG [Q19K]	2.33
FSDSSMDHFQKFLPTVGGWLGTAG [Q19W]	2.35
FSDSSMDHFQKFLPTVGGVLGTAG [Q19V]	1.89
FSDSSMDHFQKFLPTVGGHLGTAG [Q19H]	1.74
FSDSSMDHFQKFLPTVGGALGTAG [Q19A]	1.79
FSDSSMDHFQKFLPTVGGPLGTAG [Q19P]	2.51
FSDSSMDHFQKFLPTVGGDLGTAG [Q19D]	2.58
FSDSSMDHFQKFLPTVGGLLGTAG [Q19L]	2.16
FSDSSMDHFQKFLPTVGGGLGTAG [Q19G]	2.05
FSDSSMDHFQKFLPTVGGCLGTAG [Q19C]	1.96
FSDSSMDHFQKFLPTVGGRLGTAG [Q19R]	3.06
